Measured values reported in US20130005646A1 (Novo Nordisk, published 2013).
Starred links: 1 amine or outer side, 2 acyl side, 3 side chain; linkers in the order of their positions; H or OH if unused. Positions of bridges follow the written chain, without caps; N, C: chain ends. *: point of attachment. C20 diacid = O=C(O)CCCCCCCCCCCCCCCCCCC(=O)*; γGlu = O=C(O)[C@H](CCC(=O)[*:2])N[*:1]

T1: human calcitonin (a) receptor (human, UniProt P30988 25-474)
T1 sequence (looked up): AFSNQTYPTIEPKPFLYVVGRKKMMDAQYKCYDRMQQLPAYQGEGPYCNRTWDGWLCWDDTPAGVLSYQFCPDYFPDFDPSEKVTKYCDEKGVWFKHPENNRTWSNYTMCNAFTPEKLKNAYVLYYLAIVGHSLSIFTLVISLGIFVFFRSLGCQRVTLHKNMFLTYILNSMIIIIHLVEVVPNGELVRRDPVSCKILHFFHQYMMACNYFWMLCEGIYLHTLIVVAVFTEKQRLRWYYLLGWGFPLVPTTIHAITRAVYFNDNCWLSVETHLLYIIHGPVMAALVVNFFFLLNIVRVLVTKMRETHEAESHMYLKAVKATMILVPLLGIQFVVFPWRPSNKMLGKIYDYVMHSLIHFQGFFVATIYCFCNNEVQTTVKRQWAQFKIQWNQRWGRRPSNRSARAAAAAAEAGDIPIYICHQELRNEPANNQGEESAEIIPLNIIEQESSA

T2: human amylin 3(a) receptor (human calcitonin receptor + RAMP-3) (human, UniProt P30988 25-474; O60896 24-148)
T2 sequence (looked up) 1: T1 sequence (looked up)
T2 sequence (looked up) 2: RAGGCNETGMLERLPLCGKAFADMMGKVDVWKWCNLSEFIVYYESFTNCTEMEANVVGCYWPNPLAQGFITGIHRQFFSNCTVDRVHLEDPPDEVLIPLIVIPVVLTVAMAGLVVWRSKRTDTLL

B1: N-alpha-[(S)-4-Carboxy-4-(19-carboxynonadecanoylamino)butyryl]-Gly-[Arg1,His35]-pramlintide (peptide)
peptide: {C20 diacid-γGlu}-GRCNTATCATQRLANFLVHSSNNFGPILPPTNVGSHTY-NH2
modifications: disulfide 3-8
SMILES: CC[C@H](C)[C@H](NC(=O)[C@@H]1CCCN1C(=O)CNC(=O)[C@H](Cc1ccccc1)NC(=O)[C@H](CC(N)=O)NC(=O)[C@H](CC(N)=O)NC(=O)[C@H](CO)NC(=O)[C@H](CO)NC(=O)[C@H](Cc1c[nH]cn1)NC(=O)[C@@H](NC(=O)[C@H](CC(C)C)NC(=O)[C@H](Cc1ccccc1)NC(=O)[C@H](CC(N)=O)NC(=O)[C@H](C)NC(=O)[C@H](CC(C)C)NC(=O)[C@H](CCCNC(=N)N)NC(=O)[C@H](CCC(N)=O)NC(=O)[C@@H](NC(=O)[C@H](C)NC(=O)[C@@H]1CSSC[C@H](NC(=O)[C@H](CCCNC(=N)N)NC(=O)CNC(=O)CC[C@H](NC(=O)CCCCCCCCCCCCCCCCCCC(=O)O)C(=O)O)C(=O)N[C@@H](CC(N)=O)C(=O)N[C@@H]([C@@H](C)O)C(=O)N[C@@H](C)C(=O)N[C@@H]([C@@H](C)O)C(=O)N1)[C@@H](C)O)C(C)C)C(=O)N[C@@H](CC(C)C)C(=O)N1CCC[C@H]1C(=O)N1CCC[C@H]1C(=O)N[C@H](C(=O)N[C@@H](CC(N)=O)C(=O)N[C@H](C(=O)NCC(=O)N[C@@H](CO)C(=O)N[C@@H](Cc1c[nH]cn1)C(=O)N[C@H](C(=O)N[C@@H](Cc1ccc(O)cc1)C(N)=O)[C@@H](C)O)C(C)C)[C@@H](C)O
B2: N-alpha-[(S)-4-Carboxy-4-(19-carboxynonadecanoylamino)butyryl]-[Arg1,Pro37]-pramlintide (peptide)
peptide: {C20 diacid-γGlu}-RCNTATCATQRLANFLVHSSNNFGPILPPTNVGSNTP-NH2
modifications: disulfide 2-7
SMILES: CC[C@H](C)[C@H](NC(=O)[C@@H]1CCCN1C(=O)CNC(=O)[C@H](Cc1ccccc1)NC(=O)[C@H](CC(N)=O)NC(=O)[C@H](CC(N)=O)NC(=O)[C@H](CO)NC(=O)[C@H](CO)NC(=O)[C@H](Cc1c[nH]cn1)NC(=O)[C@@H](NC(=O)[C@H](CC(C)C)NC(=O)[C@H](Cc1ccccc1)NC(=O)[C@H](CC(N)=O)NC(=O)[C@H](C)NC(=O)[C@H](CC(C)C)NC(=O)[C@H](CCCNC(=N)N)NC(=O)[C@H](CCC(N)=O)NC(=O)[C@@H](NC(=O)[C@H](C)NC(=O)[C@@H]1CSSC[C@H](NC(=O)[C@H](CCCNC(=N)N)NC(=O)CC[C@H](NC(=O)CCCCCCCCCCCCCCCCCCC(=O)O)C(=O)O)C(=O)N[C@@H](CC(N)=O)C(=O)N[C@@H]([C@@H](C)O)C(=O)N[C@@H](C)C(=O)N[C@@H]([C@@H](C)O)C(=O)N1)[C@@H](C)O)C(C)C)C(=O)N[C@@H](CC(C)C)C(=O)N1CCC[C@H]1C(=O)N1CCC[C@H]1C(=O)N[C@H](C(=O)N[C@@H](CC(N)=O)C(=O)N[C@H](C(=O)NCC(=O)N[C@@H](CO)C(=O)N[C@@H](CC(N)=O)C(=O)N[C@H](C(=O)N1CCC[C@H]1C(N)=O)[C@@H](C)O)C(C)C)[C@@H](C)O
B3: N-alpha-[(S)-4-Carboxy-4-(19-carboxynonadecanoylamino)butyryl]-[Arg1,His35]-pramlintide (peptide)
peptide: {C20 diacid-γGlu}-RCNTATCATQRLANFLVHSSNNFGPILPPTNVGSHTY-NH2
modifications: disulfide 2-7
SMILES: CC[C@H](C)[C@H](NC(=O)[C@@H]1CCCN1C(=O)CNC(=O)[C@H](Cc1ccccc1)NC(=O)[C@H](CC(N)=O)NC(=O)[C@H](CC(N)=O)NC(=O)[C@H](CO)NC(=O)[C@H](CO)NC(=O)[C@H](Cc1c[nH]cn1)NC(=O)[C@@H](NC(=O)[C@H](CC(C)C)NC(=O)[C@H](Cc1ccccc1)NC(=O)[C@H](CC(N)=O)NC(=O)[C@H](C)NC(=O)[C@H](CC(C)C)NC(=O)[C@H](CCCNC(=N)N)NC(=O)[C@H](CCC(N)=O)NC(=O)[C@@H](NC(=O)[C@H](C)NC(=O)[C@@H]1CSSC[C@H](NC(=O)[C@H](CCCNC(=N)N)NC(=O)CC[C@H](NC(=O)CCCCCCCCCCCCCCCCCCC(=O)O)C(=O)O)C(=O)N[C@@H](CC(N)=O)C(=O)N[C@@H]([C@@H](C)O)C(=O)N[C@@H](C)C(=O)N[C@@H]([C@@H](C)O)C(=O)N1)[C@@H](C)O)C(C)C)C(=O)N[C@@H](CC(C)C)C(=O)N1CCC[C@H]1C(=O)N1CCC[C@H]1C(=O)N[C@H](C(=O)N[C@@H](CC(N)=O)C(=O)N[C@H](C(=O)NCC(=O)N[C@@H](CO)C(=O)N[C@@H](Cc1c[nH]cn1)C(=O)N[C@H](C(=O)N[C@@H](Cc1ccc(O)cc1)C(N)=O)[C@@H](C)O)C(C)C)[C@@H](C)O
B4: N-alpha-[(S)-4-Carboxy-4-(19-carboxynonadecanoylamino)butyryl]-[Arg1,Glu14,His17,His35]-pramlintide (peptide)
peptide: {C20 diacid-γGlu}-RCNTATCATQRLAEFLHHSSNNFGPILPPTNVGSHTY-NH2
modifications: disulfide 2-7
SMILES: CC[C@H](C)[C@H](NC(=O)[C@@H]1CCCN1C(=O)CNC(=O)[C@H](Cc1ccccc1)NC(=O)[C@H](CC(N)=O)NC(=O)[C@H](CC(N)=O)NC(=O)[C@H](CO)NC(=O)[C@H](CO)NC(=O)[C@H](Cc1c[nH]cn1)NC(=O)[C@H](Cc1c[nH]cn1)NC(=O)[C@H](CC(C)C)NC(=O)[C@H](Cc1ccccc1)NC(=O)[C@H](CCC(=O)O)NC(=O)[C@H](C)NC(=O)[C@H](CC(C)C)NC(=O)[C@H](CCCNC(=N)N)NC(=O)[C@H](CCC(N)=O)NC(=O)[C@@H](NC(=O)[C@H](C)NC(=O)[C@@H]1CSSC[C@H](NC(=O)[C@H](CCCNC(=N)N)NC(=O)CC[C@H](NC(=O)CCCCCCCCCCCCCCCCCCC(=O)O)C(=O)O)C(=O)N[C@@H](CC(N)=O)C(=O)N[C@@H]([C@@H](C)O)C(=O)N[C@@H](C)C(=O)N[C@@H]([C@@H](C)O)C(=O)N1)[C@@H](C)O)C(=O)N[C@@H](CC(C)C)C(=O)N1CCC[C@H]1C(=O)N1CCC[C@H]1C(=O)N[C@H](C(=O)N[C@@H](CC(N)=O)C(=O)N[C@H](C(=O)NCC(=O)N[C@@H](CO)C(=O)N[C@@H](Cc1c[nH]cn1)C(=O)N[C@H](C(=O)N[C@@H](Cc1ccc(O)cc1)C(N)=O)[C@@H](C)O)C(C)C)[C@@H](C)O
B5: N-alpha-[(S)-4-Carboxy-4-(19-carboxynonadecanoylamino)butyryl]-Gly-[Arg1,Glu14,His17,His35]-pramlintide (peptide)
peptide: {C20 diacid-γGlu}-GRCNTATCATQRLAEFLHHSSNNFGPILPPTNVGSHTY-NH2
modifications: disulfide 3-8
SMILES: CC[C@H](C)[C@H](NC(=O)[C@@H]1CCCN1C(=O)CNC(=O)[C@H](Cc1ccccc1)NC(=O)[C@H](CC(N)=O)NC(=O)[C@H](CC(N)=O)NC(=O)[C@H](CO)NC(=O)[C@H](CO)NC(=O)[C@H](Cc1c[nH]cn1)NC(=O)[C@H](Cc1c[nH]cn1)NC(=O)[C@H](CC(C)C)NC(=O)[C@H](Cc1ccccc1)NC(=O)[C@H](CCC(=O)O)NC(=O)[C@H](C)NC(=O)[C@H](CC(C)C)NC(=O)[C@H](CCCNC(=N)N)NC(=O)[C@H](CCC(N)=O)NC(=O)[C@@H](NC(=O)[C@H](C)NC(=O)[C@@H]1CSSC[C@H](NC(=O)[C@H](CCCNC(=N)N)NC(=O)CNC(=O)CC[C@H](NC(=O)CCCCCCCCCCCCCCCCCCC(=O)O)C(=O)O)C(=O)N[C@@H](CC(N)=O)C(=O)N[C@@H]([C@@H](C)O)C(=O)N[C@@H](C)C(=O)N[C@@H]([C@@H](C)O)C(=O)N1)[C@@H](C)O)C(=O)N[C@@H](CC(C)C)C(=O)N1CCC[C@H]1C(=O)N1CCC[C@H]1C(=O)N[C@H](C(=O)N[C@@H](CC(N)=O)C(=O)N[C@H](C(=O)NCC(=O)N[C@@H](CO)C(=O)N[C@@H](Cc1c[nH]cn1)C(=O)N[C@H](C(=O)N[C@@H](Cc1ccc(O)cc1)C(N)=O)[C@@H](C)O)C(C)C)[C@@H](C)O

What was measured:
[1] = molecular target: T1, human calcitonin (a) receptor; experiment: cell-based or functional assay
[2] = molecular target: T2, human amylin 3(a) receptor (human …); experiment: cell-based or functional assay

Binder	CTa receptor human EC50 [1] [nM]	Amylin receptor human EC50 [2] [nM]
B1	0.0875	0.045
B2	0.0385	0.034
B3	0.193	0.0745
B4	0.175	0.082
B5	0.0895	0.0675
